Measured values published in paper PMC5523840.

Molecular target: T1, TFCP2 (LBP-1c/CP2/LSF) (UniProt Q12800 1-502)
T1 sequence: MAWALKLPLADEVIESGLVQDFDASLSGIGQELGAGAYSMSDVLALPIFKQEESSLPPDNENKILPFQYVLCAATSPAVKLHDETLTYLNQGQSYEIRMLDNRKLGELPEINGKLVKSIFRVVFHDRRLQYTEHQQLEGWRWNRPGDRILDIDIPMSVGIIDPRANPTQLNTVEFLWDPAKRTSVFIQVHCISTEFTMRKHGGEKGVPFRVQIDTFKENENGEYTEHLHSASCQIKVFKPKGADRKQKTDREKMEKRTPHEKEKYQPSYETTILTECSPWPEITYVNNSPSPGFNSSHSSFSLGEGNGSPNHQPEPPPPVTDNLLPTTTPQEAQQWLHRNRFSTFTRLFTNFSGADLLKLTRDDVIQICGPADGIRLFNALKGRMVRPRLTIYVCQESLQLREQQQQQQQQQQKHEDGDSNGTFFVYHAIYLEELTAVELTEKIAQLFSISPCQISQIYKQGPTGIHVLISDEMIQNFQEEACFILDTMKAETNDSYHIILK
Experiment: EMSA

B1: rs2830077[A] (dsDNA)
DNA 1: GACACGCTGACTTCCAGGCAAAAGCCAGGCACAAGAGAAGC
DNA 2: GCTTCTCTTGTGCCTGGCTTTTGCCTGGAAGTCAGCGTGTC
  binding signal: 1 fold band intensity (reference for the C allele, 46% greater)
